Here are results for two substances from US20230048633A1.

This experiment addresses recombinant HLA-E-His protein (human) (UniProt P13747). Nature of the experiment: ELISA: the chimeric protein itself was coated in a 1:3 titration (the x axis is its coating concentration), HLA-E-His (Novus NBP2-47435PEP) was added, detected with Anti-6x-His-HRP (Abcam Ab1187).

Broadly, the EC50 (read off the curve) is the concentration at which the effect is half-maximal.

Regarding “hTGFBR2-Fc-NKG2A chimeric protein (Fc fusion)”, the EC50 (read off the curve) turned out to be 5 µg/mL.

As for “hSLAMF6-Fc-NKG2A chimeric protein (from UniProt Q96DU3 22-226; P26715 94-233) (Fc fusion)”, the EC50 (read off the curve) came to 6 µg/mL.
